{"source": "paper PMC11187563", "about": "“The importance of tyrosines in multimers of cyclic RGD nonapeptides: towards αvβ6-integrin targeted radiotherapeutics” (RSC Medicinal Chemistry, 2024)", "key": {"[1]": {"tested_on": "αvβ6-integrin expressing human lung adenocarcinoma cell line H2009 xenografts", "assay": "Ex vivo biodistribution of 177Lu-labeled peptide tetramers in H2009 xenografted SCID mice", "details": "H2009 bearing SCID mice", "method": "(§1) The biodistribution of the ^177Lu-labeled peptide conjugates was investigated in severe combined immunodeficiency (SCID) mice bearing subcutaneous xenografts of the αvβ6-integrin expressing human lung adenocarcinoma cell line H2009 on their right shoulders. Two representative time points after i.v. administration (p.i.) were evaluated.\n(§2) Analytical HPLC was performed on a Shimadzu (Kyoto, Japan) Prominence HPLC system equipped with either a Dr. Maisch ReproSil Pur C18 AQ 150 × 4.6 mm, 5 μm, 120 Å (AC1) or a Phenomenex Kinetex C18 150 × 4.6 mm 5 μm column (AC2). Semipreparative HPLC was performed on a Shimadzu HPLC system equipped with either a Dr. Maisch ReproSil Pur C18 AQ 250 × 10 mm, 5 μm, 120 Å column with 5 mL min^−1 flow (PC1) or a Dr. Maisch ReproSil Pur C18 150 × 30 mm, 5 μm, 120 Å column with 20 mL min^−1 flow (PC2). Solvents for both systems were water (A) and acetonitrile (B) each supplemented with 0.1% (vol) trifluoroacetic acid (TFA). ESI-MS spectra (positive mode) were recorded on a Shimadzu LC-MS 2020 single quadrupol mass spectrometer. Solvents for MS applications were water (A) and acetonitrile (B) each supplemented with 0.1% (vol) formic acid. The other experimental procedures (determination of log D7.4, cultivation of H2009 human lung adenocarcinoma cells, generation of tumor xenografts in CB17 SCID mice, and biodistribution) were performed as described before.[28] All animal experiments have been carried out according to applicable law and institutional guidelines of Technical University of Munich, and were approved by the responsible local authority (Regierung von Oberbayern). The H2009 cells were regularly authenticated and tested for mycoplasma contamination. DOTPI-tetraazide,[43]FF (previously termed AvB6),[29]FY,[34] and YY (also referred to as Tyr2-alkyne)[36] were synthesized as described previously."}, "[2]": {"assay": "Ex vivo biodistribution of 177Lu-labeled peptide tetramers in H2009 xenografted SCID mice", "details": "CB17 SCID, mouse, iv, total radioactivity, H2009 bearing SCID mice; for tissue uptake at 1.5 h / tissue to tissue ratio at 1.5 h: 90 pmol, 90 min p.i.; for tissue uptake at 72 h / tissue to tissue ratio at 72 h: 92 pmol, 3 d p.i.", "method": "as §1, §2"}, "[3]": {"details": "H2009 tumor, read-out: Tumor H2009 %IA/g"}, "[4]": {"details": "adrenals, read-out: Adrenals %IA/g"}, "[5]": {"details": "heart (myocard), read-out: Heart (myocard) %IA/g"}, "[6]": {"details": "kidneys, read-out: Kidneys %IA/g"}, "[7]": {"details": "large intestine (empty), read-out: Large intestine (empty) %IA/g"}, "[8]": {"details": "pancreas, read-out: Pancreas %IA/g"}, "[9]": {"details": "small intestine (empty), read-out: Small intestine (empty) %IA/g"}, "[10]": {"details": "stomach (empty), read-out: Stomach (empty) %IA/g"}, "[11]": {"details": "tumor/blood, read-out: tumor/organ ratio, Blood"}, "[12]": {"details": "tumor/heart (myocard), read-out: tumor/organ ratio, Heart (myocard)"}, "[13]": {"details": "tumor/liver, read-out: tumor/organ ratio, Liver"}, "[14]": {"details": "tumor/lung, read-out: tumor/organ ratio, Lung"}, "[15]": {"details": "tumor/pancreas, read-out: tumor/organ ratio, Pancreas"}, "[16]": {"details": "tumor/spleen, read-out: tumor/organ ratio, Spleen"}}, "note": "Read-outs that look alike come from different tables or passages of the source."}
{"smiles": "CC(C)C[C@@H]1NC(=O)[C@H](CC(=O)O)NC(=O)CNC(=O)[C@H](CCCNC(=N)N)NC(=O)[C@H](Cc2ccccc2)NC(=O)[C@H](CCCCNC(=O)CCc2cn(CCCNC(=O)CCP(=O)(O)CN3CCN(CP(=O)(O)CCC(=O)NCCCn4cc(CCC(=O)NCCCC[C@H]5C(=O)N[C@@H](Cc6ccccc6)C(=O)N[C@@H](CCCNC(=N)N)C(=O)NCC(=O)N[C@@H](CC(=O)O)C(=O)N[C@@H](CC(C)C)C(=O)N[C@@H](C)C(=O)N[C@@H](Cc6ccccc6)C(=O)N6CCC[C@@H]6C(=O)N5C)nn4)CCN(CP(=O)(O)CCC(=O)NCCCn4cc(CCC(=O)NCCCC[C@H]5C(=O)N[C@@H](Cc6ccccc6)C(=O)N[C@@H](CCCNC(=N)N)C(=O)NCC(=O)N[C@@H](CC(=O)O)C(=O)N[C@@H](CC(C)C)C(=O)N[C@@H](C)C(=O)N[C@@H](Cc6ccccc6)C(=O)N6CCC[C@@H]6C(=O)N5C)nn4)CCN(CP(=O)(O)CCC(=O)NCCCn4cc(CCC(=O)NCCCC[C@H]5C(=O)N[C@@H](Cc6ccccc6)C(=O)N[C@@H](CCCNC(=N)N)C(=O)NCC(=O)N[C@@H](CC(=O)O)C(=O)N[C@@H](CC(C)C)C(=O)N[C@@H](C)C(=O)N[C@@H](Cc6ccccc6)C(=O)N6CCC[C@@H]6C(=O)N5C)nn4)CC3)nn2)N(C)C(=O)[C@H]2CCCN2C(=O)[C@H](Cc2ccccc2)NC(=O)[C@H](C)NC1=O", "note": "[Compound 177Lu-Y0, metal not drawn]", "values": [{"measurement": "tumor/organ ratio, Kidneys", "setting": "[1]; 90 min p.i.", "value": 0.0}, {"measurement": "tumor/organ ratio, Kidneys", "setting": "[1]; 3 d p.i.", "value": 0.0}, {"measurement": "tissue uptake at 1.5 h", "setting": "[2]; [3]", "value": 3.23, "unit": "%ID/g"}, {"measurement": "tissue uptake at 72 h", "setting": "[2]; [3]", "value": 1.72, "unit": "%ID/g"}, {"measurement": "tissue uptake at 1.5 h", "setting": "[2]; [4]", "value": 1.36, "unit": "%ID/g"}, {"measurement": "tissue uptake at 72 h", "setting": "[2]; [4]", "value": 0.82, "unit": "%ID/g"}, {"measurement": "tissue uptake at 1.5 h", "setting": "[2]; blood, read-out: Blood %IA/g", "value": 1.2, "unit": "%ID/g"}, {"measurement": "tissue uptake at 72 h", "setting": "[2]; blood, read-out: Blood %IA/g", "value": 0.02, "unit": "%ID/g"}, {"measurement": "tissue uptake at 1.5 h", "setting": "[2]; bone, read-out: Bone %IA/g", "value": 1.45, "unit": "%ID/g"}, {"measurement": "tissue uptake at 72 h", "setting": "[2]; bone, read-out: Bone %IA/g", "value": 0.42, "unit": "%ID/g"}, {"measurement": "tissue uptake at 1.5 h", "setting": "[2]; [5]", "value": 1.13, "unit": "%ID/g"}, {"measurement": "tissue uptake at 72 h", "setting": "[2]; [5]", "value": 0.43, "unit": "%ID/g"}, {"measurement": "tissue uptake at 1.5 h", "setting": "[2]; [6]", "value": 208, "unit": "%ID/g"}, {"measurement": "tissue uptake at 72 h", "setting": "[2]; [6]", "value": 243, "unit": "%ID/g"}, {"measurement": "tissue uptake at 1.5 h", "setting": "[2]; [7]", "value": 3, "unit": "%ID/g"}, {"measurement": "tissue uptake at 72 h", "setting": "[2]; [7]", "value": 1.19, "unit": "%ID/g"}, {"measurement": "tissue uptake at 1.5 h", "setting": "[2]; liver, read-out: Liver %IA/g", "value": 5.03, "unit": "%ID/g"}, {"measurement": "tissue uptake at 72 h", "setting": "[2]; liver, read-out: Liver %IA/g", "value": 2.61, "unit": "%ID/g"}, {"measurement": "tissue uptake at 1.5 h", "setting": "[2]; lung, read-out: Lung %IA/g", "value": 3.59, "unit": "%ID/g"}, {"measurement": "tissue uptake at 72 h", "setting": "[2]; lung, read-out: Lung %IA/g", "value": 1.22, "unit": "%ID/g"}, {"measurement": "tissue uptake at 1.5 h", "setting": "[2]; muscle, read-out: Muscle %IA/g", "value": 0.53, "unit": "%ID/g"}, {"measurement": "tissue uptake at 72 h", "setting": "[2]; muscle, read-out: Muscle %IA/g", "value": 0.29, "unit": "%ID/g"}, {"measurement": "tissue uptake at 1.5 h", "setting": "[2]; [8]", "value": 0.49, "unit": "%ID/g"}, {"measurement": "tissue uptake at 72 h", "setting": "[2]; [8]", "value": 0.31, "unit": "%ID/g"}, {"measurement": "tissue uptake at 1.5 h", "setting": "[2]; [9]", "value": 1.67, "unit": "%ID/g"}, {"measurement": "tissue uptake at 72 h", "setting": "[2]; [9]", "value": 0.82, "unit": "%ID/g"}, {"measurement": "tissue uptake at 1.5 h", "setting": "[2]; spleen, read-out: Spleen %IA/g", "value": 2.22, "unit": "%ID/g"}, {"measurement": "tissue uptake at 72 h", "setting": "[2]; spleen, read-out: Spleen %IA/g", "value": 1.58, "unit": "%ID/g"}, {"measurement": "tissue uptake at 1.5 h", "setting": "[2]; [10]", "value": 4.15, "unit": "%ID/g"}, {"measurement": "tissue uptake at 72 h", "setting": "[2]; [10]", "value": 2.63, "unit": "%ID/g"}, {"measurement": "tissue to tissue ratio at 72 h", "setting": "[2]; tumor / adrenals, read-out: tumor/organ ratio, Adrenals", "value": 2.1}, {"measurement": "tissue to tissue ratio at 72 h", "setting": "[2]; tumor / bone, read-out: tumor/organ ratio, Bone", "value": 5}, {"measurement": "tissue to tissue ratio at 72 h", "setting": "[2]; tumor / large intestine (empty), read-out: tumor/organ ratio, Large intestine (empty)", "value": 2.1}, {"measurement": "tissue to tissue ratio at 72 h", "setting": "[2]; tumor / muscle, read-out: tumor/organ ratio, Muscle", "value": 8.2}, {"measurement": "tissue to tissue ratio at 72 h", "setting": "[2]; tumor / small intestine (empty), read-out: tumor/organ ratio, Small intestine (empty)", "value": 2.2}, {"measurement": "tissue to tissue ratio at 72 h", "setting": "[2]; tumor / stomach (empty), read-out: tumor/organ ratio, Stomach (empty)", "value": 0.8}, {"measurement": "tissue to tissue ratio at 1.5 h", "setting": "[2]; tumor/adrenals, read-out: tumor/organ ratio, Adrenals", "value": 2.9}, {"measurement": "tissue to tissue ratio at 1.5 h", "setting": "[2]; [11]", "value": 2.7}, {"measurement": "tissue to tissue ratio at 72 h", "setting": "[2]; [11]", "value": 97.5}, {"measurement": "tissue to tissue ratio at 1.5 h", "setting": "[2]; tumor/bone, read-out: tumor/organ ratio, Bone", "value": 2.4}, {"measurement": "tissue to tissue ratio at 1.5 h", "setting": "[2]; [12]", "value": 3}, {"measurement": "tissue to tissue ratio at 72 h", "setting": "[2]; [12]", "value": 4.3}, {"measurement": "tissue to tissue ratio at 1.5 h", "setting": "[2]; tumor/large intestine (empty), read-out: tumor/organ ratio, Large intestine (empty)", "value": 1.1}, {"measurement": "tissue to tissue ratio at 1.5 h", "setting": "[2]; [13]", "value": 0.7}, {"measurement": "tissue to tissue ratio at 72 h", "setting": "[2]; [13]", "value": 0.7}, {"measurement": "tissue to tissue ratio at 1.5 h", "setting": "[2]; [14]", "value": 0.9}, {"measurement": "tissue to tissue ratio at 72 h", "setting": "[2]; [14]", "value": 1.5}, {"measurement": "tissue to tissue ratio at 1.5 h", "setting": "[2]; tumor/muscle, read-out: tumor/organ ratio, Muscle", "value": 6}, {"measurement": "tissue to tissue ratio at 1.5 h", "setting": "[2]; [15]", "value": 6.7}, {"measurement": "tissue to tissue ratio at 72 h", "setting": "[2]; [15]", "value": 6.3}, {"measurement": "tissue to tissue ratio at 1.5 h", "setting": "[2]; tumor/small intestine (empty), read-out: tumor/organ ratio, Small intestine (empty)", "value": 2}, {"measurement": "tissue to tissue ratio at 1.5 h", "setting": "[2]; [16]", "value": 1.6}, {"measurement": "tissue to tissue ratio at 72 h", "setting": "[2]; [16]", "value": 1.1}, {"measurement": "tissue to tissue ratio at 1.5 h", "setting": "[2]; tumor/stomach (empty), read-out: tumor/organ ratio, Stomach (empty)", "value": 0.8}]}
